# From US20120214741
# Molecular target: VDAC of isolated rat mitochondria (liver, brain) (UniProt Q9Z2L0)
# Sequence (Q9Z2L0 2-283): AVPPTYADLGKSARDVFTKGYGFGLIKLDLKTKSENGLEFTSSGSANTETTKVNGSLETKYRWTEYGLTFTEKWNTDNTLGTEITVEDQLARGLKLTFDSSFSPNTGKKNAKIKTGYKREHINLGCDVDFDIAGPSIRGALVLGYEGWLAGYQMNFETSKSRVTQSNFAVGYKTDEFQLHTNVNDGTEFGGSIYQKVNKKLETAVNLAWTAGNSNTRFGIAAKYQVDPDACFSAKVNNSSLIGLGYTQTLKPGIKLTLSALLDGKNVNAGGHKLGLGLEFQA
substance,measurement,value
yeast HK,PTP opening (swelling of energized mitochondria),"The failure of non-binding species of HK, such as yeast HK, or trypsin- or chymotrypsin-treated HK-I (FIG. 2D) to prevent PTP opening"
